# Laboratory results taken from the supplement of paper PMC9732359.
# ± gives the uncertainty stated by the source.
# Assay: protein stability index of a GFP-peptide fusion (yeast GPS) (PSI 1-4); higher = more stable; sorted into four equal gates, so the index is relative within each strain
# Settings: doa10∆
# Summary of the method: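 Tiled 17-residue peptides from yeast proteins were fused downstream of GFP on a plasmid that also expresses Cherry, and the pooled library was carried in yeast. Mid-log cultures grown in leucine-free medium were sorted into four equal gates by GFP/Cherry fluorescence ratio. Plasmids from each gate were PCR-amplified and Illumina-sequenced, and reads were assigned to strains by barcodes. Each peptide's protein stability index is the sum, over gates, of the gate's read frequency multiplied by its gate number.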
row,Sequence,protein stability index
1,LTMANLPSWSLGKWYSK [ARP7],3.17 ± 0.15
2,LTMHKIIQLILWSIHPS [SRB8],1.62 ± 0.047
3,LTRNAPLDSKDENFASV [SNF2],3.04 ± 0.08
4,LTVYLEPGHAADQEQAK [RPO21],2.96 ± 0.14
5,LVALLSRDLWCFSINDD [SSN2],2.1 ± 0.076
6,LVEEFMLLANISVARKI [DIS3],1.3 ± 0.062
7,LVEYGFDPSRIKDLKQR [SMC2],2.04 ± 0.049
8,LVFQLAKNFSAQKRVVS [SRB8],1.69 ± 0.053
9,LVGRKPAEHPFISAARY [RPC37],2.23 ± 0.14
10,LVHSEYLINGKRFKRKD [SRP68],2.68 ± 0.16
11,LVQEQVREFQRRLAFLG [BRR2],2.07 ± 0.12
12,LVQLSTMETKTLPEKKQ [SIR4],2.88 ± 0.063
13,LVRNGPNEHPGAKYVIR [RPO21],2.91 ± 0.095
14,LWPVAIGLIALSATGTR [YJR042W/NUP85],1.75 ± 0.25
15,LYAIKKVTLNKETQQYE [BRR2],3.03 ± 0.15
16,LYEIILAANYLNIKPLL [SKP1],1.51 ± 0.046
17,LYFPDDYPFTQLGYIEN [POP1],2.71 ± 0.12
18,LYGAPGTGKTLLAKAVA [RPT2],1.77 ± 0.11
19,LYGVTICYNKKTEYVLN [REC8],1.3 ± 0.058
20,LYKEFFNEKFPSLIQEE [NUT1],3 ± 0.13
21,LYLQDSNDKFVHVQLLI [SRB8],1.96 ± 0.055
22,LYSIREDYELSPQAVSS [PRE1],2.2 ± 0.13
23,MAESTTLETIEIHPITF [RRP43],3.04 ± 0.073
24,MAFNLLGLLTPEVVELC [FAS2],1.8 ± 0.085
25,MAGLKDVVTREYTINLH [RPL31A],3.02 ± 0.15

row,Sequence,protein stability index
1,MAHENVWFSHPRRYGKG [RPS29A],3.39 ± 0.24
2,MAKLNECPLDPGGYFIV [RET1],2.87 ± 0.11
3,MANTGCLSPGAFLSKVP [SRP14],2.56 ± 0.076
4,MASTELSLKRTLTDILE [RPN4],1.26 ± 0.18
5,MDALYEKIWFAISKENL [SIR3],2.21 ± 0.06
6,MDCTKEEEATMTTSAVS [YIL149C/MLP2],3.35 ± 0.08
7,MDFANLWVFQAFTCFCI [SRB8],1.55 ± 0.054
8,MDPQTLITKANKVSYYG [RTT102],1.85 ± 0.047
9,MDTIQDKLINDVTAIQT [ECM29],3.22 ± 0.083
10,MEGNAQPVNFNRSWDHA [RPO31],2.22 ± 0.11
11,MEGQKLDDPVLNAIVSK [YJR042W/NUP85],3.27 ± 0.19
12,MELSPTYQTERFTKFSD [YDL116W/NUP84],3.09 ± 0.13
13,MENEFFKVQELLHSKPS [NAS6],2.2 ± 0.14
14,MERLDGDYNNTVYSSEQ [SMC3],2.94 ± 0.11
15,MFGAKPAGTSLFGNNAG [YGL172W/NUP49],3.16 ± 0.076
16,MGDELTRSHFNALYDTL [RPN6],2.3 ± 0.048
17,MGSLINGITLALIDAGI [SKI6],1.89 ± 0.1
18,MGYSGWCTTCKSAENII [RET1],3.21 ± 0.15
19,MIDAVFEQDSHLRYQPD [SNF6],3.09 ± 0.076
20,MIFWNDICQIDTNAPVA [SRB8],2.4 ± 0.063
21,MIQPPQQGQNMSEQQWR [ROX3],2.15 ± 0.082
22,MIQTPRELLNPRYTYHT [YML031W/NDC1],2.95 ± 0.078
23,MIRLLGSESDDSEGSIK [ECM29],2.67 ± 0.21
24,MISEVPSVAAEYVYFFN [RPC40],1.53 ± 0.11
25,MKANPALYVLRERIRKG [PRP8],2.47 ± 0.23

row,Sequence,protein stability index
1,MKATSNTLEEFEHGRTP [FAS2],2.8 ± 0.08
2,MKLNILDERFASRVALN [IRR1],1.54 ± 0.051
3,MKLTDLLSLINSTHLLP [SNF12],2.56 ± 0.052
4,MKNPDVEFCGYSIPHPS [RPC19],2.81 ± 0.082
5,MKTNVHTQANEPNSAKK [RGR1],3.02 ± 0.11
6,MKTVQSPMGAQPSYNSA [GAL11],3.37 ± 0.26
7,MKYDIFAKFIHHIHHFE [IRR1],2.03 ± 0.079
8,MLAAQDVAAKCKEVGIT [RPS14A],2.38 ± 0.057
9,MLDKLMVTSIRSTPNYI [MED6],2.4 ± 0.064
10,MLHKVLENKADPLVSLM [RPT6],2.28 ± 0.08
11,MLKPNIIFQQLLFWTDP [YCG1],2.42 ± 0.099
12,MLLCVSYFLQERYFDCC [PCI8],1.19 ± 0.091
13,MLMPKEDRNKIHQYLFQ [RPS10A],2.27 ± 0.057
14,MLQISDDNEMTRDDLLT [RRI2],2.93 ± 0.1
15,MLQMKGKLLRNYTQNID [SIR2],2.91 ± 0.076
16,MLSKTKVYYFQGGNNEL [RPL30],2.87 ± 0.15
17,MMTGAEQDPYSNASQMG [RPB3],2.68 ± 0.14
18,MNERDWRILKEDYAIVT [PRP28],3.42 ± 0.22
19,MNIPQRQFSNEEVNRCY [SNF2],2.44 ± 0.1
20,MNLDFDIEEGPITSKSW [MCD1],2.85 ± 0.15
21,MNLKKELQGYIELSVPD [SRB5],2.6 ± 0.21
22,MPDMNEMMKMMQDPQMQ [SRP54],3.22 ± 0.19
23,MPFNDQGIVPDIIMNPH [RET1],2.71 ± 0.075
24,MPNSSLQPFYSQPTAAG [DSN1],2.33 ± 0.076
25,MPPKEDWEKYKAPLEDD [RPT1],3.21 ± 0.12

row,Sequence,protein stability index
1,MPVAPTMEVKSFPILDQ [YMR129W/POM152],1.36 ± 0.1
2,MQRQQQGISGSQQNIVP [SNF2],2.91 ± 0.059
3,MRNFSKQNQDSKHNERN [YDL088C/ASM4],3.01 ± 0.11
4,MRQQSKELQQLQKQILT [SMC1],3.32 ± 0.13
5,MSAQKAPKWYPSEDVAA [RPL6A],2.03 ± 0.12
6,MSDTEAPVEVQEDFEVV [RPS5],3.23 ± 0.1
7,MSETLPRSDDLEATWNF [CDC53],3.05 ± 0.17
8,MSEVITITKRNGAFQNS [RRP4],2.33 ± 0.083
9,MSFSSLYKTFFKRNAVF [QCR9],1.67 ± 0.066
10,MSISLESSKALADSLDR [DIS3],2.53 ± 0.067
11,MSKVMKPSNGKGSRKSS [SNF12],2.92 ± 0.091
12,MSLKDKLLIQIDELSNG [SMC1],2.27 ± 0.084
13,MSPLECRNILGVTSLIK [RPP1],2.23 ± 0.052
14,MSPNHGTFGGDGMYSES [FAS2],1.87 ± 0.075
15,MSSQISSLIPHCITSIT [MTR3],1.77 ± 0.061
16,MTKTITVAHIQYDFKAV [RPN14],2.42 ± 0.083
17,MTMASKSLEVVNADTVG [NSL1],2.96 ± 0.078
18,MTMNGIPVKLLNEAQGH [SMD3],3.2 ± 0.12
19,MTRILPQQSRYISFIKD [RPN2],2.16 ± 0.057
20,MTSIGTGYDLSNSVFSP [PRE10],2.77 ± 0.085
21,MTTVSGRDAFHLRVRVH [RPL10],1.33 ± 0.16
22,MVKLIVMLCTLTGYQNN [YJL039C/NUP192],1.9 ± 0.12
23,MVNVPKTRKTYCKGKTC [RPL42A],1.42 ± 0.15
24,MVTENPQRLTVLRLATN [MCD1],2.25 ± 0.069
25,MVVQNSPVSSVHTANFS [MED2],2.12 ± 0.1
